Data taken from publication PMC7572813.

Target: B/Phuket/3073/2013 NA ectodomain (residues W80-L466) (influenza B virus B/Phuket/3073/2013)
Assay: cryo-EM structure

For “B/Phuket/3073/2013 NA ectodomain (residues W80-L466) (domain or fragment)”, the stoichiometry N was 4.
